We go through 95 sequences from the supplement of paper PMC6755084.

In this data set the test system is F1*sub RNA substrate (template-directed ligation). In words: fraction ligated after 30 min (ligated reads / total reads); higher = more ligase activity; sequences stand for … in GAGACCGCAACTGAAAAGTTGT…AGTTCTGCACGTAGAAGCAAAAGGC
The following applies: 42 °C. The procedure:
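Chip-synthesised pool of F1* ligase ribozyme variants (all single and double substitutions, single, double and triple deletions in the catalytic core and GAA bulge, plus designed variants) was transcribed with T7 and reacted as a pool with excess substrate F1*sub for 30 min at 42 C in 50 mM EPPS pH 8.5, 25 mM MgCl2. Ligated and unligated bands were separated by PAGE, barcoded by RT and deep sequenced; fraction ligated = ligated reads / total reads per variant, relative activity = FL / FL of wild type (0.826). Sequences are the DNA template of the ribozyme.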
ATCACTTGTCGTAAGCACTTTGGAGGGTTGA [3d227] displayed a fraction ligated of 0.0599. ATCACTTGTCGTAAGCACTTTGGATGGGTTA [3d229]: the fraction ligated came to 0.34. Turning to ATCACTTGTCGTAAGCACTTTGGATGGGTTG [3d230], the fraction ligated is 0.731. Then ATCACTTGTCGTAAGCACTTTGGATGGGTTGA [2d14], with 0.782; and ATCACTTGTCGTAAGCACTTTGGATGGTTGA [3d228], with 0.195.

Consider ATCACTTGTCGTAAGCACTTTGGTGGGTTGA [3d226], for which the fraction ligated was 0.0296. Then ATCACTTGTCGTAAGCATTTGGATGGGTTGA [3d223], with 0.731; and ATCACTTGTCGTAAGCCTTTGGATGGGTTGA [3d222], with 0.744. Then ATCACTTGTCGTAGAACTTTGGATGGGTTGA [3d201], with 0.867; and ATCACTTGTCGTAGACACTTGGATGGGTTGA [3d204], with 0.74. The value for ATCACTTGTCGTAGACACTTTGATGGGTTGA [3d205] was 0.715. ATCACTTGTCGTAGACACTTTGGAGGGTTGA [3d207] returned a fraction ligated of 0.211.

In the case of ATCACTTGTCGTAGACACTTTGGATGGGTTA [3d209], the fraction ligated came to 0.728. Take ATCACTTGTCGTAGACACTTTGGATGGGTTG [3d210]: the fraction ligated is 0.782. Then ATCACTTGTCGTAGACACTTTGGATGGGTTGA [2d12], with 0.789.

The sequence ATCACTTGTCGTAGACACTTTGGATGGTTGA [3d208] showed a fraction ligated of 0.766. Then ATCACTTGTCGTAGACACTTTGGTGGGTTGA [3d206], with 0.0928; and ATCACTTGTCGTAGACATTTGGATGGGTTGA [3d203], with 0.731. ATCACTTGTCGTAGACCTTTGGATGGGTTGA [3d202] displayed a fraction ligated of 0.767. Turning to ATCACTTGTCGTAGCACTTTGGATGGGTTGA [3d200], the fraction ligated amounted to 0.749. The value for ATCACTTGTCGTGACACTTTGGATGGGTTGA [3d198] was 0.746; that for ATCACTTGTCTAAACACTTTGGATGGGTTGA [3d173] was 0.77.

As for ATCACTTGTCTAAGAACTTTGGATGGGTTGA [3d175], the fraction ligated turned out to be 0.728. In turn, ATCACTTGTCTAAGACACTTGGATGGGTTGA [3d178] had a fraction ligated of 0.73. Sequence ATCACTTGTCTAAGACACTTTGATGGGTTGA [3d179] showed a fraction ligated of 0.594. Then ATCACTTGTCTAAGACACTTTGGAGGGTTGA [3d181], with 0.155; and ATCACTTGTCTAAGACACTTTGGATGGGTTA [3d183], with 0.656. Sequence ATCACTTGTCTAAGACACTTTGGATGGGTTG [3d184] showed a fraction ligated of 0.762. For the sequence ATCACTTGTCTAAGACACTTTGGATGGGTTGA [2d10], the fraction ligated was 0.765.

ATCACTTGTCTAAGACACTTTGGATGGTTGA [3d182] showed a fraction ligated of 0.676. The sequence ATCACTTGTCTAAGACACTTTGGTGGGTTGA [3d180] returned a fraction ligated of 0.0503. The value for ATCACTTGTCTAAGACATTTGGATGGGTTGA [3d177] was 0.756; that for ATCACTTGTCTAAGACCTTTGGATGGGTTGA [3d176] was 0.717. ATCACTTGTCTAAGCACTTTGGATGGGTTGA [3d174]: the fraction ligated worked out at 0.733. In turn, ATCACTTGTCTAGACACTTTGGATGGGTTGA [3d172] came in with a fraction ligated of 0.734. Then ATCACTTGTGAAGACACTTTGGATGGGTTGA [3d157], with 0.815; and ATCACTTGTGTAAACACTTTGGATGGGTTGA [3d159], with 0.837; and ATCACTTGTGTAAGAACTTTGGATGGGTTGA [3d161], with 0.88. Then ATCACTTGTGTAAGACACTTGGATGGGTTGA [3d164], with 0.719. The value for ATCACTTGTGTAAGACACTTTGATGGGTTGA [3d165] was 0.453; that for ATCACTTGTGTAAGACACTTTGGAGGGTTGA [3d167] was 0.116.

In the case of ATCACTTGTGTAAGACACTTTGGATGGGTTA [3d169], the fraction ligated stood at 0.598. The sequence ATCACTTGTGTAAGACACTTTGGATGGGTTG [3d170] came in with a fraction ligated of 0.838. As for ATCACTTGTGTAAGACACTTTGGATGGGTTGA [2d9], the fraction ligated was 0.853.

Consider ATCACTTGTGTAAGACACTTTGGATGGTTGA [3d168], for which the fraction ligated was 0.45. As to ATCACTTGTGTAAGACACTTTGGTGGGTTGA [3d166], the fraction ligated was 0.0152.

Regarding ATCACTTGTGTAAGACATTTGGATGGGTTGA [3d163], the fraction ligated is 0.798. Regarding ATCACTTGTGTAAGACCTTTGGATGGGTTGA [3d162], the fraction ligated turned out to be 0.811. With ATCACTTGTGTAAGCACTTTGGATGGGTTGA [3d160], the fraction ligated came to 0.854. ATCACTTGTGTAGACACTTTGGATGGGTTGA [3d158]: the fraction ligated turned out to be 0.864.

For the sequence ATCACTTGTTAAGACACTTTGGATGGGTTGA [3d156], the fraction ligated stood at 0.787.

ATCACTTTCGAAGACACTTTGGATGGGTTGA [3d126] yielded a fraction ligated of 0.698. The sequence ATCACTTTCGTAAACACTTTGGATGGGTTGA [3d128] had a fraction ligated of 0.779. Then ATCACTTTCGTAAGAACTTTGGATGGGTTGA [3d130], with 0.849.

As for ATCACTTTCGTAAGACACTTGGATGGGTTGA [3d133], the fraction ligated stood at 0.748. Consider ATCACTTTCGTAAGACACTTTGATGGGTTGA [3d134], for which the fraction ligated turned out to be 0.401.

In turn, ATCACTTTCGTAAGACACTTTGGAGGGTTGA [3d136] displayed a fraction ligated of 0.0337. Sequence ATCACTTTCGTAAGACACTTTGGATGGGTTA [3d138] yielded a fraction ligated of 0.137.

In turn, ATCACTTTCGTAAGACACTTTGGATGGGTTG [3d139] displayed a fraction ligated of 0.777. ATCACTTTCGTAAGACACTTTGGATGGGTTGA [2d7] registered a fraction ligated of 0.772. The sequence ATCACTTTCGTAAGACACTTTGGATGGTTGA [3d137] returned a fraction ligated of 0.191.

In the case of ATCACTTTCGTAAGACACTTTGGTGGGTTGA [3d135], the fraction ligated was 0.00882.

For ATCACTTTCGTAAGACATTTGGATGGGTTGA [3d132], the fraction ligated was found to be 0.781. Then ATCACTTTCGTAAGACCTTTGGATGGGTTGA [3d131], with 0.752. The value for ATCACTTTCGTAAGCACTTTGGATGGGTTGA [3d129] was 0.766. The value for ATCACTTTCGTAGACACTTTGGATGGGTTGA [3d127] was 0.781; that for ATCACTTTCTAAGACACTTTGGATGGGTTGA [3d125] was 0.753; that for ATCACTTTGTAAGACACTTTGGATGGGTTGA [3d124] was 0.787. Take ATCATGTCGTAAGACACTTTGGATGGGTTGA [3d86]: the fraction ligated was 0.722.

As to ATCATTGCGTAAGACACTTTGGATGGGTTGA [3d88], the fraction ligated was 0.755.

ATCATTGTCGAAGACACTTTGGATGGGTTGA [3d91]: the fraction ligated came out at 0.728.

Turning to ATCATTGTCGTAAACACTTTGGATGGGTTGA [3d93], the fraction ligated amounted to 0.77.

ATCATTGTCGTAAGAACTTTGGATGGGTTGA [3d95]: the fraction ligated is 0.802.

For ATCATTGTCGTAAGACACTTGGATGGGTTGA [3d98], the fraction ligated came out at 0.726.

For ATCATTGTCGTAAGACACTTTGATGGGTTGA [3d99], the fraction ligated worked out at 0.664. For the sequence ATCATTGTCGTAAGACACTTTGGAGGGTTGA [3d101], the fraction ligated turned out to be 0.12.

With ATCATTGTCGTAAGACACTTTGGATGGGTTA [3d103], the fraction ligated came out at 0.093. Then ATCATTGTCGTAAGACACTTTGGATGGGTTG [3d104], with 0.703; and ATCATTGTCGTAAGACACTTTGGATGGGTTGA [2d5], with 0.759.

In turn, ATCATTGTCGTAAGACACTTTGGATGGTTGA [3d102] came in with a fraction ligated of 0.482. Then ATCATTGTCGTAAGACACTTTGGTGGGTTGA [3d100], with 0.109; and ATCATTGTCGTAAGACATTTGGATGGGTTGA [3d97], with 0.729; and ATCATTGTCGTAAGACCTTTGGATGGGTTGA [3d96], with 0.717. Then ATCATTGTCGTAAGCACTTTGGATGGGTTGA [3d94], with 0.727; and ATCATTGTCGTAGACACTTTGGATGGGTTGA [3d92], with 0.761. The value for ATCATTGTCTAAGACACTTTGGATGGGTTGA [3d90] was 0.663; that for ATCATTGTGTAAGACACTTTGGATGGGTTGA [3d89] was 0.79. Consider ATCATTTCGTAAGACACTTTGGATGGGTTGA [3d87], for which the fraction ligated came out at 0.654. The value for ATCCTGTCGTAAGACACTTTGGATGGGTTGA [3d67] was 0.683; that for ATCCTTGCGTAAGACACTTTGGATGGGTTGA [3d69] was 0.768; that for ATCCTTGTCGAAGACACTTTGGATGGGTTGA [3d72] was 0.773.

On to ATCCTTGTCGTAAACACTTTGGATGGGTTGA [3d74], for which the fraction ligated came to 0.789. Then ATCCTTGTCGTAAGAACTTTGGATGGGTTGA [3d76], with 0.719; and ATCCTTGTCGTAAGACACTTGGATGGGTTGA [3d79], with 0.733. Then ATCCTTGTCGTAAGACACTTTGATGGGTTGA [3d80], with 0.71.
